# Data reported in publication PMC8259413.
# B1: 20-mer single-nucleotide gapped DNA (templating G) (dsDNA)
# DNA 1: CGACCGACGGCGCATCAGCC
# DNA 2: GGCTGATGCGC
# DNA 3: GTCGGTCG
# modifications: 5'-phosphate on downstream strand
# Target: DNA polymerase beta (Pol β) (rat, UniProt P06766 1-335)
# Test: NMR chemical shift titration
binder,measurement,value
B1,binding result,binds
